Literature values as cited in article PMC12152951.

Tests used:
[1] = target: IL7Rα (Homo sapiens) (UniProt P16871)
[2] = target: TSLPR-IL7Rα fusion protein (Homo sapiens) (UniProt Q9HC73)
[3] = target: TSLPR (Homo sapiens) (UniProt Q9HC73)

UniProt P16871, sequence (P16871 21-239): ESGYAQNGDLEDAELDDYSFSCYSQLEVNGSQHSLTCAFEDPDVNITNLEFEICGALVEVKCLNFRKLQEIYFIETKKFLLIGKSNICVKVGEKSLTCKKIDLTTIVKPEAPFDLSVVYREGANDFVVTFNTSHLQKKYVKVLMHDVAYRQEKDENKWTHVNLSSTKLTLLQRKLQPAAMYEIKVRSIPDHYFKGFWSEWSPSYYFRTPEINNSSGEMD

| Substance | Kd [1] | Kd [2] | Kd [3] |
| --- | --- | --- | --- |
| TSLP-TSLPR complex (from UniProt Q969D9) | 29 nM | – | – |
| TSLP (from UniProt Q969D9) | – | 0.09 nM | 32 nM |
